For one substance, other: log2(fold change) results are on record in article PMC12187939.

The target in experiment [1] is CBP, A549 nuclear extract (UniProt Q92793). In words: FLAG IP/MS. The settings on record: nuclear fractions from A549 cells; four individual replicates; read off a plot.
Experiment [2] deals with p300, A549 nuclear extract (UniProt Q09472). In words: FLAG IP/MS. The settings on record: nuclear fractions from A549 cells; four individual replicates; read off a plot.
UniProt Q09472, sequence (Q09472 whole entry): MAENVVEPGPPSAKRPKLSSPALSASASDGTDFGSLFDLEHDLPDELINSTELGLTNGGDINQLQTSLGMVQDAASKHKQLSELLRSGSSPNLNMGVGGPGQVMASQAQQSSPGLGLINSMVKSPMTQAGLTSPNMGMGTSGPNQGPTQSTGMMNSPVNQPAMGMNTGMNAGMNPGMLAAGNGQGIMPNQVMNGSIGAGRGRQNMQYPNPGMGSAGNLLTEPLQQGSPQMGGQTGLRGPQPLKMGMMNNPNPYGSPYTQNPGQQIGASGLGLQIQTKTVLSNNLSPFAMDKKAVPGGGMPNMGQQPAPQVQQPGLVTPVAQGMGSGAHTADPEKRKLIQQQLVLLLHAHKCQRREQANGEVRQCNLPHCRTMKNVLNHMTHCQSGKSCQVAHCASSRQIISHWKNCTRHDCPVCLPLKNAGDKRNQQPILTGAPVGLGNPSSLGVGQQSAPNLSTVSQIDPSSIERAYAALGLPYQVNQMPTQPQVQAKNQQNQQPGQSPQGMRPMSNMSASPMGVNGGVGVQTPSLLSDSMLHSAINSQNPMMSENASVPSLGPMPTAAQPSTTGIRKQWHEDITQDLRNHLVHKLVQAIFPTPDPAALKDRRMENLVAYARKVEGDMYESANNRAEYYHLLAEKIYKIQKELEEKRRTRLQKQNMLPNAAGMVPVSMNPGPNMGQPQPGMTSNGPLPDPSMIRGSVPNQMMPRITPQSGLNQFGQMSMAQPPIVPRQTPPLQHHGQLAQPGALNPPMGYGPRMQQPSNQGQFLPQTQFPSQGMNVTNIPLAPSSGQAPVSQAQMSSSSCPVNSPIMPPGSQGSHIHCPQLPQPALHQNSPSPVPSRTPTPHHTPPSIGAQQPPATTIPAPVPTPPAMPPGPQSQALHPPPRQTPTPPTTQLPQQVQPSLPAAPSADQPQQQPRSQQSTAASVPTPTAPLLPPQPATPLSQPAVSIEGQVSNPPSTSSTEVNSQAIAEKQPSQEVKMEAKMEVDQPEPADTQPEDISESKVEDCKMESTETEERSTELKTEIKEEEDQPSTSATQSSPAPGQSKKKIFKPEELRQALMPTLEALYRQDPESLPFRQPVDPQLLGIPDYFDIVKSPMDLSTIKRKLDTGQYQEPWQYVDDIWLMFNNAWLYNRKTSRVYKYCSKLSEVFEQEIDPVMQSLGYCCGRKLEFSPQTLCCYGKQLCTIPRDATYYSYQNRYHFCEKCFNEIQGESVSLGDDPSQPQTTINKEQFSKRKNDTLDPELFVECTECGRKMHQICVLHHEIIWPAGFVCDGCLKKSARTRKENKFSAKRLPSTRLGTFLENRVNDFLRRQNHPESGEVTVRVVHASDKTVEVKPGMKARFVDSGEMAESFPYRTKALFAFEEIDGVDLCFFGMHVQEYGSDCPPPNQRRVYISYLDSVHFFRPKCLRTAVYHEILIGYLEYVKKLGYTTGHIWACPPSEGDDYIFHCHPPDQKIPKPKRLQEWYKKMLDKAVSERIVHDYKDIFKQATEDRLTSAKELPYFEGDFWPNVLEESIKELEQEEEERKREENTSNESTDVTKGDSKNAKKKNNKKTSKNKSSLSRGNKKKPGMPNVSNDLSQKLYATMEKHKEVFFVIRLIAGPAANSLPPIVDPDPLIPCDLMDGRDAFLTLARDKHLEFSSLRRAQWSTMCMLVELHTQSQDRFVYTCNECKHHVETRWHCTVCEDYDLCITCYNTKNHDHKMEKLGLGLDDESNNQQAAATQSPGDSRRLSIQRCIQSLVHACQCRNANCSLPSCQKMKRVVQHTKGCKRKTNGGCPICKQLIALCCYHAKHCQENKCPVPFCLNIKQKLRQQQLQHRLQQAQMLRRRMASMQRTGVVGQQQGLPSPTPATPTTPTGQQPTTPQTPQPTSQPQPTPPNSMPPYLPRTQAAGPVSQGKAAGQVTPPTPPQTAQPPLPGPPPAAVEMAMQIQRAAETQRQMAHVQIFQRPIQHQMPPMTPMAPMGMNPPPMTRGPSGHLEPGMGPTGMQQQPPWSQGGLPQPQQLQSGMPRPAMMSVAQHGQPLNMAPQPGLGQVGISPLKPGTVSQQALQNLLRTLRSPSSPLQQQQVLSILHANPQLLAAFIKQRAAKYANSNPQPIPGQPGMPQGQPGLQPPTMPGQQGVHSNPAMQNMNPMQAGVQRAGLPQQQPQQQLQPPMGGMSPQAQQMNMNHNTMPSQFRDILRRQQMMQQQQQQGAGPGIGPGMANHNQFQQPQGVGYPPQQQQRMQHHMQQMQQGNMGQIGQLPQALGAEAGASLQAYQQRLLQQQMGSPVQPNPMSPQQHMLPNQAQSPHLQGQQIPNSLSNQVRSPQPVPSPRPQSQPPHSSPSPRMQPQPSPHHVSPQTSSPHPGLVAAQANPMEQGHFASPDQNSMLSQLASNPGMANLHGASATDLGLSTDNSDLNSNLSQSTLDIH

UniProt Q92793, sequence (Q92793 whole entry): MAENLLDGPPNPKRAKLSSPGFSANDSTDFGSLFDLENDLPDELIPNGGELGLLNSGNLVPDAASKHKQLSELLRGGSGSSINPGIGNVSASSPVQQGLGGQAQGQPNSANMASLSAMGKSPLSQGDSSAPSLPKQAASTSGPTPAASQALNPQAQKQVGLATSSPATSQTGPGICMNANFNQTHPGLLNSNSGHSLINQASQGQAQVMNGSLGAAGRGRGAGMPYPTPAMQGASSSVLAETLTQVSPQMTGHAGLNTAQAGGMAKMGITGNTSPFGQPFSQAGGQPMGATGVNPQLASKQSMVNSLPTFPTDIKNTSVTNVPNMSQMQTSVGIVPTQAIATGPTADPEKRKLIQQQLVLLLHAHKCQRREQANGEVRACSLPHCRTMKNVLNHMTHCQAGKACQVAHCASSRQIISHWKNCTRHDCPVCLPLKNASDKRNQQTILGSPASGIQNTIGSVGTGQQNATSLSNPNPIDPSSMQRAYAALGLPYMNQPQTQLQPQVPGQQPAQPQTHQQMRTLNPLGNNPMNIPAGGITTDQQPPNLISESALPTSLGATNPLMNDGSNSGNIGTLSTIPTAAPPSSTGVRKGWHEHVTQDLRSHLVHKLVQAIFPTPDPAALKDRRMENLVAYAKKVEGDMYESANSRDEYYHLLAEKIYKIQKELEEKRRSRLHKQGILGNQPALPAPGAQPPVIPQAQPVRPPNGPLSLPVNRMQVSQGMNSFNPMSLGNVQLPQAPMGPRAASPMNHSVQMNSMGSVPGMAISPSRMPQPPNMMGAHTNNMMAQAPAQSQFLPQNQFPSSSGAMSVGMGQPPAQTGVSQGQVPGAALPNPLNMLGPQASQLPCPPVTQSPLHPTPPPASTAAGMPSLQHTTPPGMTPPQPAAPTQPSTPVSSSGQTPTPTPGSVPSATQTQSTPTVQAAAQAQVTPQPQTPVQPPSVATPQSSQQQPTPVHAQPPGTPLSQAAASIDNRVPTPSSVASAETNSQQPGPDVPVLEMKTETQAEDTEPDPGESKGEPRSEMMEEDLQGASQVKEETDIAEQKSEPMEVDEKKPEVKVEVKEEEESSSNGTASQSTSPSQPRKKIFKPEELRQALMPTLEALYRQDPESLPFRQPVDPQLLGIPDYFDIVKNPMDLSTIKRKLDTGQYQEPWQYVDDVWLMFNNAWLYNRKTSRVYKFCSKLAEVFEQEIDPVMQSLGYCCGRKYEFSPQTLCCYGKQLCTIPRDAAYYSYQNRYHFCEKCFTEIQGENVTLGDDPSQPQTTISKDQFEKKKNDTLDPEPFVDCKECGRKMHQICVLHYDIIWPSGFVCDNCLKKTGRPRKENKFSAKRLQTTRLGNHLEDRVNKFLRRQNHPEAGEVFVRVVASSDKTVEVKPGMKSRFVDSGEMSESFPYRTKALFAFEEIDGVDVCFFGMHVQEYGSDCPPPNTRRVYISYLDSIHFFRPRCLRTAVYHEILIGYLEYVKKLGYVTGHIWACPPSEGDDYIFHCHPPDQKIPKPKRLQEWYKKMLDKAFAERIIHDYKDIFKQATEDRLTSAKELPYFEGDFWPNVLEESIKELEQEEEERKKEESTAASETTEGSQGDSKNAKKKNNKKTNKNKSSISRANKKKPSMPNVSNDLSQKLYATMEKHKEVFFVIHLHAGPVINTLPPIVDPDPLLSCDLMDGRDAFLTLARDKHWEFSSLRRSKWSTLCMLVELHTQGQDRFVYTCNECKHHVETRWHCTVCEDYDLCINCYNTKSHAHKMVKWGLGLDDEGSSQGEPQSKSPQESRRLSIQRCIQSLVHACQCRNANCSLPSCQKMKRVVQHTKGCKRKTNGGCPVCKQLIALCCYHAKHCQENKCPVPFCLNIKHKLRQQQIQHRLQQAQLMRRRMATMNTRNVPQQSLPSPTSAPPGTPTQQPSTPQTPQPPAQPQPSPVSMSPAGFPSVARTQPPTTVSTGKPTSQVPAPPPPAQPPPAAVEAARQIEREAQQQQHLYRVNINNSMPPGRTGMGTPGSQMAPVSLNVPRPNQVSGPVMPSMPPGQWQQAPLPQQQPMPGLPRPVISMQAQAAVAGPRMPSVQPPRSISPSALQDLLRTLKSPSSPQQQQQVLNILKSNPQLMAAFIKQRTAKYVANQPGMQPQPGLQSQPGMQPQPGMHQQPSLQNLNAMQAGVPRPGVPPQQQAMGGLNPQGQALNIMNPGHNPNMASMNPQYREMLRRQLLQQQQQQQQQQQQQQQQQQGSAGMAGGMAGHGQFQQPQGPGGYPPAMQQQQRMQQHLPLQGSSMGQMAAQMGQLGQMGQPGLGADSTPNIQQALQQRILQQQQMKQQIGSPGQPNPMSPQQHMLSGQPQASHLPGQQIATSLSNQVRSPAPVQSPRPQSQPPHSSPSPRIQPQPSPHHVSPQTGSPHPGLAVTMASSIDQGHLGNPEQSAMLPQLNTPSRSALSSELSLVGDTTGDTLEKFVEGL

“FLAG-tagged WT NRF2, stably expressed in A549 (TRE3G-driven, dox-induced) (from UniProt Q16236) Neh4: …>… (F>A; D>A; C>A; L>A); Neh5: …>… (Q>A; D>A; E>A; L>A)”: the other: log2(fold change) in experiment [1] is -3.8; in experiment [2], -3.2.
